From patent US20050152926A1

Columns and labels:
[1] = target: HLA A2 on RMA-S/A2 cells (human); test: BB7.2 staining of RMA-S/A2 cells without peptide (peptide-free control); FIG 2(i)
[2] = target: HLA A2 on RMA-S/A2 cells (human); test: BB7.2 staining of RMA-S/A2 cells without peptide (peptide-free control); FIG 1(i)
[3] = target: HLA A2 on RMA-S/A2 cells (human); test: BB7.2 staining of RMA-S/A2 cells without peptide (peptide-free control); FIG 3(i)

Mean 2 [1]: 311 | Δ Mean [1]: 154 | Mean 2 [2]: 380 | Δ Mean [2]: 193 | Mean 2 [3]: 282 | Δ Mean [3]: 151
Substance: anti-A2 specific BB7.2 monoclonal antibody
